Legend:
[1] = biological target: staphylococcal enterotoxin C3 (SEC3) (Staphylococcus aureus, UniProt P0A0L5 28-266)
[2] = biological target: staphylococcal enterotoxin B (SEB) (Staphylococcus aureus, UniProt P01552 28-266)
[3] = biological target: staphylococcal enterotoxin C2 (SEC2) (Staphylococcus aureus, UniProt P34071 28-266)
[4] = biological target: staphylococcal enterotoxin C1 (SEC1) (Staphylococcus aureus, UniProt P01553 28-266)

B1: APTSEB1 (ssDNA)
DNA: GGTATTGAGGGTCGCATCCACTGGTCGTTGTTGTCTGTTGTCTGTTATGTTGTTTCGTGATGGCTCTAACTCTCCTCT
**Q.** Does B1 bind [1]?
**A.** no binding

**Q.** Does B1 bind [2]?
**A.** binds

**Q.** Does B1 bind [3]?
**A.** no binding

**Q.** Does B1 bind [4]?
**A.** no binding

— paper PMC3306407, “A Single-Stranded DNA Aptamer That Selectively Binds to Staphylococcus aureus Enterotoxin B”
